From patent US12226476B2, “Helper epitope peptide and application thereof” (CHINA PHARMACEUTICAL UNIVERSITY, priority 2018, dated 2025)
Non-standard residues stand in square brackets, D forms with d. Phe(4-NO2) = N[C@@H](Cc1ccc([N+](=O)[O-])cc1)C(=O)O

Key:
Assay in all cases: Antibody titer in serum of immunized mice, indirect ELISA
Assay type in all cases: in vivo
FR-α = conditions: FIG. 15; compared with the FR-α group and the FR-α-PADRE group; mice immunized subcutaneously, 50 μg, Freund's adjuvant
Experimental: (§1) The protocol is as follows: • (1) The helper epitope was connected to individual antigens or antigen epitope with the linking peptide to construct multiple fusion antigens. The sequence of the linking peptide is GPSL (i.e. Gly-Pro-Ser-Leu) (SEQ ID NO:51). • (2) The fusion antigens from (1) were emulsified adequately with complete Freund's adjuvant of the same volume. Then to immunize mice via subcutaneous injection with the emulsion at the dose of 50 μg per mouse. The strains of experimental mice including C57, Fvb and Balb/C. After 7 days and 14 days of first immunization, the fusion antigens from (1) were emulsified adequately with incomplete Freund's adjuvant of the same volume and then to immunize mice via subcutaneous injection with the emulsion at the dose of 50 μg per mouse. • (3) There are two detection methods. One is to obtain the orbital blood of immunized mice on 7, 14, 21 and 28 day respectively, centrifuge the whole blood to get the serum. Then the antibody titer is detected by indirect ELISA. The other one is: one week after the last immunization, the mice are killed to get the spleen. PBMC (peripheral blood mononuclear cells) are isolated, and the CTL-mediated cytotoxicity is detected by LDH (lactate dehydrogenase) kit.
(§2) The first step was to construct the fusion antigen. According to each fusion antigen, C57BL/6 female mice aged 6-8 weeks were randomly divided into three groups with 6 mice in each group. They were PBS group, existing antigen or antigen epitope group, antigen-PADRE or antigen epitope-PADRE group, and vaccine group containing fusion antigen.
(§3) In the second step, using fusion antigen to immunize mice via subcutaneous injection for 3 times […] 50 μg each time. Mixed with Freund's adjuvant of the same volume.
(§4) Method 1: The whole blood was collected every week after immunization and centrifugated at 6000 rpm for 20 min to obtain the serum for a total of 4 weeks. Antibody titers were detected by indirect ELISA as follows: • (1) Coating: the existing antigen or antigen epitope was diluted to 5 μg/mL with coating solution. Then the 100 μL mixed solution was added into each well of enzyme immunoassay test strip, and incubated in 37° C. incubator for 2 h; • (2) use PBST to wash each well 5 times for 5 min each time; • (3) Sealing: 150 μL locking solution was added to each well of the enzyme immunoassay test strip and incubated at 4° C. overnight. • (4) Repeat step (2); • (5) Incubation first antibody: the collected mouse serum was diluted with antibody diluent. Then the 100 μL mixed solution was added into each well, and incubated at 37° C. for 2 h; • (6) Repeat step (2); • (7) Incubating secondary antibodies: HRP-GOAT Anti-mouse IgG was diluted with antibody dilution in the ratio of 1:10000, and 100 μL dilution was added to each well, and incubated at 37° C. for 45 min; • (8) Repeat step (2); • (9) Substrate addition: 100 μL TMB substrate reaction solution was added into each well of enzyme label, and incubated at 37° C. for 15 min in darkness. • (10) Termination reaction: 50 μL 2M H2SO4 was added into each well to terminate the reaction. • (11) Color development: the absorbance value of the sample in each well was detected at 450/630 nm.

PSMA = conditions: FIG. 11; compared with the PSMA group and the PSMA-PADRE group; mice immunized subcutaneously, 50 μg, Freund's adjuvant
Experimental: as §1, §2, §3, §4

PD-L1 molecule = conditions: FIG. 2; compared with the PD-L1 group and the PD-L1-PADRE group; mice immunized subcutaneously, 50 μg, Freund's adjuvant
Experimental: as §1, §2, §3, §4

TOLL-1 = conditions: FIG. 12; compared with the TOLL-1 group and the TOLL-1-PADRE group; mice immunized subcutaneously, 50 μg, Freund's adjuvant
Experimental: as §1, §2, §3, §4

IL-2Ra = conditions: FIG. 9; compared with the IL-2Ra group and the IL-2Ra-PADRE group; mice immunized subcutaneously, 50 μg, Freund's adjuvant
Experimental: as §1, §2, §3, §4

EGFR = conditions: FIG. 4; compared with the EGFR group and the EGFR-PADRE group; mice immunized subcutaneously, 50 μg, Freund's adjuvant
Experimental: as §1, §2, §3, §4

[1] = tested on: VEGFR extracellular domain; conditions: FIG. 8; compared with the VEGFR extracellular region group and the VEGFR-PADRE group; mice immunized subcutaneously, 50 μg, Freund's adjuvant
Experimental: as §1, §2, §3, §4

CD66e = conditions: FIG. 6; compared with the CD66e group and the CD66e-PADRE group; mice immunized subcutaneously, 50 μg, Freund's adjuvant
Experimental: as §1, §2, §3, §4

CD20 = conditions: FIG. 5; compared with the CD20 group and the CD20-PADRE group; mice immunized subcutaneously, 50 μg, Freund's adjuvant
Experimental: as §1, §2, §3, §4

B1: FRα-3 ? 8pPhe-PADRE: fusion antigen: FR-α linked via GPSL to helper epitope SEQ ID NO: 16 (protein)
chain: RIAWARTELLNVCMNAKHHKEKPGPEDKLHEQCRPWRKNACCSTNTSQEAHKDVSYLYRFNWNHCGEMAPACKRHFIQDTCLYECSPNLGPWIQQVDQSWRKERVLNVPLCKEDCEQWWEDCRTSYTCKSNWHKGWNWTSGFNKCAVGAACQPFHFYFPTPTVLCNEIWTHSYKVSNYSRGSGRCIQMWFDPAQGNPNEEVARFYAAAMSGPSLAKXVAAWXLKAAA
modifications: pPhe non-natural residue; (217)..(217) Xaa stands for 4-Nitrophenylalanine.; (222)..(222) Xaa stands for 4-Nitrophenylalanine.
For B1, the antibody titers (FR-α) was “increased significantly”.

B2: PSMA-11pPhe-PADRE: fusion antigen: PSMA linked via GPSL to helper epitope SEQ ID NO: 12 (protein)
chain: QGQAQQQAYDRGITIFSPDGRLYQVEYAREAVKRGTASIGVRTPEGVVLAADKRSRSPLMEPTSVEKIHKADDHIGIASAGHVADARQLIDFARRQSQVNRLRYGEPIGIETLTKEVTDHIQQYTQVGGARPFGVALLIGGVENGTPRLYETDPSGTPYEWKAVSIGADRGDHQEHLEENFRDDLTLDEGIELALEAIASTSDEGTAPDGVDVATVSAETERFVELSNDEIESYLEANDLLATEDDEQTEEGPSLAKFVAAWTLK[Phe(4-NO2)]AA
With B2 the antibody titers (PSMA) was “increased significantly”.

B3: PD/L1-2pPhe-PADRE: fusion antigen: PD-L1 molecule linked via GPSL to helper epitope SEQ ID NO: 3 (protein)
chain: MQLKPMEINPEMLNKVLSRLGVAGQWRFVDVLGLEEESLGSVPAPACALLLLFPLTAQHENFRKKQIEELKGQEVSPKVYFMKQTIGNSCGTIGLIHAVANNQDKLGFEDGSVLKQFLSETEKMSPEDRAKCFEKNEAIQAAHDAVAQEGQCRVDDKVNFHFILFNNVDGHLYELDGRMPFPVNHGASSEDTLLKDAAKVCREFTEREQGEVRFSAVALCGPSLA[Phe(4-NO2)]FVAAWTLKAAA
B3 was tested, and the antibody titer (PD-L1 molecule) was “significant increase”.

B4: TOLL/1-12pPhe-PADRE: fusion antigen: TOLL-1 linked via GPSL to helper epitope SEQ ID NO: 13 (protein)
chain: SEFLVDRSKNGLIHVPKDLSQKTTILNISQNYISELWTSDILSLSKLRILIISHNRIQYLDISVFKFNQELEYLDLSHNKLVKISCHPTVNLKHLDLSFNAFDALPICKEFGNMSQLKFLGLSTTHLEKSSVLPIAHLNISKVLLVLGETYGEKEDPEGLQDFNTESLHIVFPTNKEFHFILDVSVKTVANLELSNIKCVLEDNKCSYFLSILAKLQTNPKLSNLTLNNIETTWNSFIRILQLVWHTTVWYFSISNVKLQGQLDFRDFDYSGTSLKALSIHQVVSDVFGFPQSYIYEIFSNMNIKNFTVSGTRMVHMLCPSKISPFLHLDFSNNLLTDTVFENCGHLTELETLILQMNQLKELSKIAEMTTQMKSLQQLDISQNSVSYDEKKGDCSWTKSLLSLNMSSNILTDTIFRCLPPRIKVLDLHSNKIKSIPKQVVKLEALQELNVAFNSLTDLPGCGSFSSLSVLIIDHNSVSHPSADFFQSCQKMRSIKAGDNPFQCTCELGEFVKNIDQVSSEVLEGWPDSYKCDYPESYRGTLLKDFHMSELSCNITGPSLAKFVAAWTLKA[Phe(4-NO2)]A
In the case of B4, the antibody titers (TOLL-1) is reported as “increased significantly”.

B5: IL/2Ra-9pPhe-PADRE: fusion antigen: IL-2Ra linked via GPSL to helper epitope SEQ ID NO: 10 (protein)
chain: ELCDDDPPEIPHATFKAMAYKEGTMLNCECKRGFRRIKSGSLYMLCTGNSSHSSWDNQCQCTSSATRNTTKQVTPQPEEQKERKTTEMQSPMQPVDQASLPGHCREPPPWENEATERIYHFVVGQMVYYQCVQGYRALHRGPAESVCKMTHGKTRWTQPQLICTGEMETSQFPGEEKPQASPEGRPESETSCLVTTTDFQIQTEMAATMETSIFTTEYQGPSLAKFVAAWT[Phe(4-NO2)]KAAA
B5 was tested, and the antibody titers (IL-2Ra) was “increased significantly”.

B6: EGFR-4pPhe-PADRE: fusion antigen: EGFR linked via GPSL to helper epitope SEQ ID NO: 5 (protein)
chain: MERKERPFDVIGQLAALRRYARSLVRNSDDAEDLVHDALLRAYEKKQSFRRGGNLRTWLLSIMHNAHIDRVRQARSLARRHDEAAVEAEQSLQAGQEHAVRLKQVRDAFFHLSEEQREALHLVAIEDLSYQEAAMALDIPIGTLMSRISRARAQLREFEEKTPRAAHLRLIGGDGNEGNGPSLAKF[Phe(4-NO2)]AAWTLKAAA
In the case of B6, the antibody titer (EGFR) is reported as “increased significantly”.

B7: VEGFR-8pPhe-PADRE: fusion antigen: VEGFR extracellular domain linked via GPSL to helper epitope SEQ ID NO: 9 (protein)
chain: ASVGLPSVSLDLPRLSIQKDILTIKANTTLQITCRGQRDLDWLWPNNQSGSEQRVEVTECSDGLFCKTLTIPKVIGNDTGAYKCFYRETDLASVIYVYVQDYRSPFIASVSDQHGVVYITENKNKTVVIPCLGSISNLNVSLCARYPEKRFVPDGNRISWDSKKGFTIPSYMISYAGMVFCEAKINDESYQSIMYIVVVVGYRIYDVVLSPSHGIELSVGEKLVLNCTARTELNVGIDFNWEYPSSKHQHKKLVNRDLKTQSGSEMKKFLSTLTIDGVTRSDQGLYTCAASSGLMTKKNSTFVRVHEKPFVAFGSGMESLVEATVGERVRIPAKYLGYPPPEIKWYKNGIPLESNHTIKAGHVLTIMEVSERDTGNYTVILTNPISKEKQSHVVSLVVYVPPQIGEKSLISPVDSYQYGTTQTLTCTVYAIPPPHHIHWYWQLEEECANEPSQAVSVTNPYPCEEWRSVEDFQGGNKIEVNKNQFALIEGKNKTVSTLVIQAANVSALYKCEAVNKVGRGERVISFHVTRGPEITLQPDMQPTEQESVSLWCTADRSTFENLTWYKLGPQPLPIHVGELPTPVCKNLDTLWKLNATMFSNSTNDILIMELKNASLQDQGDYVCLAQDRKTKKRHCVVRQLTVLERVAPTITGNLENQTTSIGESIEVSCTASGNPPPQIMWFKDNETLVEDSGIVLKDGNRNLTIRRVRKEDEGLYTCQACSVLGCAKVEAFFIIEGAQEKTNLEGPSLAKFVAAW[Phe(4-NO2)]LKAAA
In the case of B7, the antibody titers [1] is reported as “increased significantly”.

B8: CD66e-6pPhe-PADRE: fusion antigen: CD66e linked via GPSL to helper epitope SEQ ID NO: 7 (protein)
chain: KLTIESTPFNVAEGKEVLLLVHNLPQHLFGYSWYKGERVDGNRQIIGYVIGTQQATPGPAYSGREIIYPNASLLIQNIIQNDTGFYTLHVIKSDLVNEEATGQFRVYPELPKPSISSNNSKPVEDKDAVAFTCEPETQDATYLWWVNNQSLPVSPRLQLSNGNRTLTLFNVTRNDTASYKCETQNPVSARRSDSVILNVLYGPDAPTISPLNTSYRSGENLNLSCHAASNPPAQYSWFVNGTFQQSTQELFIPNITVNNSGSYTCQAHNSDTGLNRTTVTTITVYAEPPKPFITSNNSNPVEDEDAVALTCEPEIQNTTYLWWVNNQSLPVSPRLQLSNDNRTLTLLSVTRNDVGPYECGIQNKLSVDHSDPVILNVLYGPDDPTISPSYTYYRPGVNLSLSCHAASNPPAQYSWLIDGNIQQHTQELFISNITEKNSGLYTCQANNSASGHSRTTVKTITVSAELPKPSISSNNSKPVEDKDAVAFTCEPEAQNTTYLWWVNGQSLPVSPRLQLSNGNRTLTLFNVTRNDARAYVCGIQNSVSANRSDPVTLDVLYGPDTPIISPPDSSYLSGANLNLSCHSASNPSPQYSWRINGIPQQHTQVLFIAKITPNNNGTYACFVSNLATGRNNSIVKSITVSASGTSPGLSAGPSLAKFVA[Phe(4-NO2)]WTLKAAA
With B8 the antibody titer (CD66e) was “significant increase”.

B9: CD20-5pPhe-PADRE: fusion antigen: CD20 linked via GPSL to helper epitope SEQ ID NO: 6 (protein)
chain: MTTPRNSVNGTFPAEPMKGPIAMQSGPKPLFRRMSSLVGPTQSFFMRESKTLGAVQIMNGLFHIALGGLLMIPAGIYAPICVTVWYPLWGGIMYIISGSLLAATEKNSRKCLVKGKMIMNSLSLFAAISGMILSIMDILNIKISHFLKMESLNFIRAHTPYINIYNCEPANPSEKNSPSTQYCYSIQSLFLGILSVMLIFAFFQELVIAGIVENEWKRTCSRPKSNIVLLSAEEKKEQTIEIKEEVVGLTETSSQPKNEEDIEIIPIQEEEEEETETNFPEPPQDQESSPIENDSSPGPSLAKFV[Phe(4-NO2)]AWTLKAAA
For B9, the antibody titer (CD20) was “significant increase”.
